Measurements from US20230037682A1.
pKd: −log10 of the molar value.

Molecular target: CD3 peptide
Experiment: SPR (Biacore); 25 °C

pKd: 7.86
Substance: J6MO_SP34 (sp34)
